# Data taken from PMC7065143, “Substrate Flexibility of the Flavin‐Dependent Dihydropyrrole Oxidases PigB and HapB Involved in Antibiotic Prodigiosin Biosynthesis” (Chembiochem, 2019).
# B1: HapB (Hahella chejuensis KCTC 2396) (protein)
# chain: MESQDNSQYAGEAPVFPSKDFECNQGSFDDTDTSPPQHAGDYDVIVVGGGISGLSSAWKLRERKLLVLDQRDRFGGAARLEQRDGLLYASGASCFQLPTGHNEVSHLLQDLDLWNQWRSTAEDTLVIFDTKRLMKGLGEVTAALLKQPKELLKPAVWGLTANLLYSAMSGKPFISAEKKLGDPMFADLFQYLNRFTPDSGKHPAMPWREGCDWTREEMELFDSVSLHDLLFDPATRRSLPQDLIPRHRFGSLVKDAVETTLRVECLAIKDVSAYVGLHFLVGYLYRPLVTFPGGNGYIADRIRQRLMSTGSCKFKAGSRAYSITQNQEGVKVCFQQEGKNYYANANALIWAGAKHAAVSVVDGLPQQQKAAIAEIEHRDYAIAGVYLKKAALANYFGGYVIEGDIGGRYPNSWCRSGVCLAANWKDPSYAGGLGVLTLLKPISGAADQGKLGKADFRNLQQTAYGEVRDMLVATGHSPDLIEDIKLWRWPHGLVVSKVGQMKHDVFVNASQPVGAVFFANQDSVGMGNMESAIWAGCHAAEQVRRHFRSHSSVVSHIGDYAATQS
# notes: full-length, N-terminal His6 tag (pQE80-L, pHDB1), E. coli BL21, Ni-NTA; soluble, lacks the N-terminal transmembrane domain of PigB
# Substrate: CCCCCC1CCN=C1C
# Experiment: purified protein
# Format: biochemical, Hahella chejuensis
# Conditions: MES pH 6.0 10 mM, 30 °C, air, DMSO, racemic substrate 0.1–1.4 mM, HapB 0.457 μM
protein,measurement,value
B1,Km,220 ± 80 µM
same,kcat,0.228 ± 0.02 s⁻¹
